{"source": "patent US7022313B2", "about": "“Hydrogel particle formulation” (PowderJect Research Ltd., priority 1999, dated 2006)", "assay": "LDH specific activity after lyophilization (colorimetric endpoint assay)", "assay_type": "biochemical", "experimental": "Lactate dehydrogenase (LDH) was obtained from Sigma Chemicals (L1254; Lot 96H9568). Bio-Gel A15M was obtained from Bio-Rad (Cat. No. 151-1050) as a powder having a MMAD of 20-150 μm. LDH activity was measured using an endpoint, colorimetric assay (Sigma No. 500). All other reagents were obtained from Fisher Scientific and were ACS-grade or better.\nThe Bio-Gel A15M resin was washed with water to remove preservative and then poured into a disposable 1×10 cm column to a final column volume of approximately 5 mL. The column was equilibrated with 5 mL sodium citrate, pH 6 containing 5% (w/v) mannitol. LDH was dissolved in the same buffer at 2 mg/mL final concentration. A 5 mL sample of this solution was loaded to the column and allowed to fully penetrate.\nThe resin was emptied from the column and lyophilized. After lyophilization the resin was re-suspended in water and poured back into the column. The column was then eluted with a 5 mL portion of the buffer. […]\nThe protein concentration of each solution was determined by absorbance at 280 nm using a Hewlett-Packard UV-VIS Spectrophotometer. […] The absorbance of the color formed is inversely proportional to the LDH activity. LDH specific activity was calculated by dividing the […]."}
{"substance": "Lactate dehydrogenase [LDH]", "values": [{"measurement": "specific activity, % of the starting material", "setting": "LDH loaded on agarose beads (Bio-Gel A15M), lyophilized, eluted, preliminary", "value": "about 40%"}, {"measurement": "specific activity, % of the starting material", "setting": "LDH recovered after lyophilization from solution", "value": 98, "unit": "%"}]}
